Test results: the domain aggregation screens of Martell et al. (2025)

Assay: soluble fraction after stress (log2 fold change); higher = more stays soluble; pooled small domains, quantitative proteomics
Settings: stress: 50 degC
Outline: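 The measure of aggregation propensity here is the base-two logarithm of the fold change in the soluble amount of each protein after stress. A higher value means more of that protein stays in solution. Stress was applied at 50°C to pooled libraries of small protein domains, read out by high-throughput quantitative proteomics.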

Sequence	soluble fraction (log2)
HMEPSAQEIANKLLGHVKSLGLPITGLSISYNSTSDLATVRGQVQSQADREKIILAVGNVDHVAKVDDQLT	-0.0356
HMQVIDNHWRPSRDALDILLRDGISEHFIEDAIPEFILYWRERGTQDSNWNSRFLQHIRLQWARYTNAV	-0.433
HMSFNLSETKKLILEEIQKGVSSVTQIAATAGISKGMTYNHLRELKLMGYIADGDSGYVITDAGKIAS	-0.04
HMIERKLRKKEHFIASVGEKVKIKNFATETYKGELISADNEKVVVETEFGKEEITYDNILAAATYFE	-0.135
HMNMPYGTVKWFNDAKGFGFIAPEDGSADVFVHFSAINSKGFRSLQEGQRVSYEVTTGPKGAQAAGVTPVT	-0.331
HMKMTFGENLHKLRKIYRLSQEDVASAINLKRSDIAAVEKGDRVLNDEELDKLADFIGIDIVDLL	-0.193
HMGDDYFTILGIERDATTDEIRSAYRRLSKKIHPDAQGSSALFRQVQEAYETLIDPSSRARYVAELNASQG	0.113
HMITPKQTAETLGIATSTLRRWASEFEPFLSLRTGVKRTYTTDDITTLKRVKDLFAQGLKTEQVREAL	-0.161
HMGIPVSIGQLDFNQARGNLALQVRASDFAALEQLRQRLGQTGESVQLGSASRDGDAVSARVVIGGQ	-0.015
HMFPELEPDEQLIADLLRKTNNLQINIITVRTGLPINRVTALLFQMEMKGVVRPLAGGTYHLLV	-0.108
HMAGPTIVTNSQGVPNYHLVKRGDTVSQIAQRYGLNYRQIGAINNLDSKYTIYSGQWLKLWQG	-0.702
HMPIRVGDAFESLAGVFPDEYNKALRKSTKKPVFFVPVKVEAGSGALRQKGKITFIVKDGRIDAIQIAL	-1.21
HMKRDNETRRRIVAAAEELFRAKGLDGVNMRELAEMAGVNKGLLHYYFKTKQALFREILVGQMAL	-1.05
HMDRERFIKLGREIARAAFENVGKKATDKVLNSAAKKLRLEDGDEVLARLGSAEIEARSVVQAVYPDLI	0.452
HMLGSQQAYTDALRLTGLPVDIEVIESDRLPFLIPMRYSLDQHLIEVNVRYPDTRAIRVQQMVEELFHA	-0.624
HMDDSVTFSEFVRMVDSGQVESVRITGNEVTGSDSTGNTFRTFVPPQYEGLVNRLVERDVAVTAEE	0.0594
HMTALSIGTVVRFTGDRHYISSTGDTGYPASPGLAKITSINPGSKHPYHLIHIDNTSNVYGWVNKQDIIT	0.16
HMETENLSPREREILEYIVKGYSYKMIAADLNIATETVRSHIKKIYKKLQVNSATEAVYKYSN	-0.322
HMEHNDPEVERTMFQGLEALKLQLFEKAFGHFSLLIKLAPDYAEAWNKRATVLYLMGRFKESESDVMRTLE	0.0585
HMPLTRSDVKRIQLWLMAHGYDIGSPDGVFGDKSNRAANAFLSQQGRSLETVTLGKLYDILEAN	-2.01
HMYTVQPHESLWSIAASQLGDGHRFTEIVDLNQELLGGKANFIKPGWVLQIP	-0.299
HMKSDELTKRRRLQIIEAAERSFRKRGFHATTLREIAAEFGMSVGHIYNYFSGKDAILEALIHQKIDD	-0.82
HMATYTPYDKQGAKLWRVTAYLGMDSVTGKQRNMKKGGFKTKKEAQLYYNQVKLDFENGTLDQ	-1.22
HMQSYSTIIGVIELRLSGIGYRTTKARYGIGNSTVTLIMNRFKETGFTLDDLKTMEPTKVEALFYPP	-0.873
HMDISRMNLSQTERAVLSVLDSQPLHTEEIIASADLRAGAIHSALISLQLKGLIKQLPGNLYVK	-0.0722
HMDSVTMYATTGVNVRSGPSTSYSIVGGLDRGDKVTRIGTSGNWTKVVWGNGSAYVFSKYLQTGY	-1.81

Sequence	soluble fraction (log2)
HMGPEQLIGKTGIAASELAPRGEVKIEGQIWRAETVGDHVKQGEPVEVVSREGLILRVKPKHPQTRG	0.214
HMQVAPQVERLLRVMGNETLSLSDIMGRMGLSDKKNFRESYLVPALRSAVIEMTIPDKPNSSLQKYRRIHE	-0.176
HMPRQREVPDVSGWTEQHAKVYLEALGYRVKVIYLEVSSFDKGLVQETSPAKGSKVEEGDTIDLRVSNQE	-0.367
HMKAERLLALLTILLSGKRVSARWLSEELEVSERTVYRDVEALSEAGFPVYATTGRDGGFSLIDGF	-2.08
HMRRPTYPTVTTEAGMVVEDRSSGFVGDIVRWSFEGVTLRDRQQQLRHFTWKPGGFLINGTPVTLKRPE	-0.629
HMNYKLESYLKKVDDQLNFIPVSDKADILSELKNTFYERLLNGQTEEEILDEMESPRELALSYMSES	0.0578
HMQFETVQDAFNHYRNASLEEIESRAAEIKGIIESDPEADVRALNIEIEGLHQAKQNILEKQKTK	-0.0753
HMLPSDLDEGNRRRQLIEGAARLFRAKGFDGTSTRDIAAAAGMRSGSPFYHFDSKNALLYVVVQEGM	-0.0519
HMNDLKVGELAKRGNVTAETVRHYTREGLLSPTRHPDNGYQLFSATDLERLHFIQRARKLGFSVAEIRDIL	-0.619
HMNVVGAKGRIIKISSSEEKMAVAEIEGHGEWNIRTNSEIELFVGKSVEVIEMKGNYLLVNQI	-0.0624
HMIGELVVEDLAAASEINVDTIRYYQRLGLLEPPRRRGRRAVYDHTHLERLAEIRRLAGAGFTLAQIGRLK	-2.53
HMEKAYVWTDTRTFDVQNYIGKKKSEVKNDQYGFEFLGEGDYVIDQLPRVGEQIEEGQKVKIMLGNQQEI	0.0468
HMITFRINQQSQVGLRLDKFIVQQMPDYSRTRIQSWIKTKNILVNGEGKKSGYALEFDDLVEVTIPE	-2.04
HMKISELAKKVIASGRVTQWAKHPHIYFVNGMRKVAIELDVNGVFSISMRYYPYDPADRELVENLIRGD	-2.53
HMAAELHPYGADSYRGDNPPAGYEIKAKEESKKFHTPSSPWYGRTIAEIWFRTEEAAEAAGFINAVK	-0.23
HMSPQIDYFDDEELDVYRQIAPEAYTDEQIEVFRDILYTLRPEEVEEWLISLEKREINLPLILRQEAIELI	0.369
HMGFAANLSRLMEYHNISMYRLAKEVGVHQTTVKNWLEEESEPKIAALEKIVGLLGVSYDELLG	-4.56
HMFRSNAERAAHLASALPRAEAELAALQARGAATSENIYLRSSYFDALRYTEELRAAKRAQDALQGA	0.0735
HMDVYKRQKLRNFIESLFEDAPKNKQTIELKEEMLQNLIDKYNDLVDSGKSSEAAYNIATAS	-0.0392
HMQYIINFEYSGMLLREYLRGVLGLSHGTLTALKKDPLGILLNGEHATVRAVLHAGDRLTLALE	-3.05
HMDGVEVVTKPAGAQIEFAGKSYGPSPVHIPGLVAGSQLILRLPGFQAATVRLRTAPDKSKALEYTLQPA	-0.0828
HMLTRQNFHGIKLPTIHEYIDLLNSRVNANIDKTNNWQSSVSHLRTYLNSHNINAVSKESINNYIDERLN	-0.572
HMKKKVDSENLLLDILKQMQPQASTNVLRKMLTNQRISVDDQIIHRAKHVVQEGQTVEIHPKP	0.00763
HMASITLDQAKEIALTHAGQTADAVWFEKAEQDYDDGILVYELEFAAKGTEYEYEIDAQTGAIREYKWDD	-0.0142
HMSSKYLKIYNDIVGKIDSGIFEANTKLPSESQLMDEYNVSRYTVRKSLNLLEQNGYIEKSKGKGSFVLDM	-0.717
HMDHTYKHIELTGSSEKGIEEAVQNALAKASESVQNMRWLEVTDTRGHIEDGRVAHWQVTVKVGFTL	-0.0248

Sequence	soluble fraction (log2)
HMGQHSAELKLHPQDLGQVTISMKVEDNQAQLQMVSGHGHVRAALEAALPQLRSQLADSGIQLTQSSIS	-0.146
HMLQLSDAISRVESFLQGQNRNLAFSIDENTERSVVTVLDSDTGDVIRQIPSEELLVLAKRIQELQQD	0.151
HMLPDLQESIDELLNIVDQRLNTSFEELVSGVNTTEKAIAFFLALLETIKWGFIKAEQTNNENKINIEKNY	0.0699
HMKKTIIVHVVGEVNTPGIVELNEGARIIDAINGAGGKTEEADMSKINLAYVIEDGSQIYVPSIYE	-0.227
HMQVEEKNKKIELYIEGKIKELESNLMYVPNENKKKLLMAFMNRNEDIEIIKTKIDTIFNKSVAAYKENM	0.237
HMEETIVFGQQKAINALSSDAGLSSNELDSYLKKRYKRPLYQLSKSEGAELIQGFQDGSLSKASIMDYVS	0.169
HMDLEIENYDLREILNLFKLDYNFDNVDLKRAQKIALKTHPDKSNLPKEYFMFFMKAFQIVQQIYYYRY	-0.47
HMTNKSKQRRNEILRASQELFNKKGFHDTSINDIMRRVGAAKGVFYYYFETKDQILDTLIEQHIA	-0.907
HMKTGTVQDFIAKYGMSSKSPSSWFNSLTQIQKAEAKALKAQSGLTWNEWYEKNIYNGDGSNL	0.0263
HMNKTEIISILEKIVLPTQIRNINIFGSEVIIDLNIDNPSLHAKKKLEKSIINSFDKNHKIIINFNVE	-0.232
HMKRIDTILETFAKVHKHIPSKLILLGDGPELLDMRKIARSLHIEDDVLFLGKQDQVSKFYQMADLVLLL	-0.0419
HMYVEVPNFIGVPLVKVQSELASLGLVFNKSVVYQTSPYLKGNILDQRPLPGEVVPLNTEMSFTVSSGPA	0.453
HMTPKTSVPKPGQTVVVRKGDTIYALARIHDITPADLIAWNRLDNPSQIYPGQVIRLYPQGA	-0.107
HMDDAFLNKEMLKQALENLNEREKKLIYLRFYEGLTQKEIADRLSLSQMHVSRLLNESLNKLRRKI	-0.245
HMLKLEEIQPNATVRGILPDALITVVNVKWFGSEALELTYKDTSGRVANQLLFRDDQPRLEIVE	-0.538
HMSFRYLHVKRQLMSLIGTMNAHERLPSRTDLSETFQVARTTIERAISELIGEGWLYARDGSGTYVAER	-1.66
HMVAMLDASYRGVMQTISTLLAQGNTERAYDEAVNARGQMSKQQWNNLANLIWERTGQKIDSGVSYK	0.139
HMKYSNDFDKVSYSLGLSIASNLISSGVKTLNAEAFNDGLATVFEGRMPEINPDEANKILQNFFEGLQKE	0.0191
HMSSANIKLDPLERQATQQIINNIKRKYPNATIENLQEVANDAIATMRQPEFSNYTVDKFVSYFLSM	-0.333
HMDKVVGSAGDVTSRITANSGEVKIDGQIWQARSYDETIAIEAGEKIEVFDLDGITLIVYPI	-0.604
HMADKHVAAALLKLMDHLVGGRQYAFMKGRLTINKKVVLEATEVSAYRRGTGLSDADWQQRYE	-1.97
HMSSVDLLSERERQVLARISRGMSNEEIAAELAITPRTVRNHLANIYGKIDVHSRAEAVVWARERGIT	0.0251
HMKQHPTIDLQIGQKLHYKEDVFEVTRFAKDKNGQDMVILKDPSIGSGIEIPWYRSKLEEIIESGQYKIT	0.413
HMTGSLRVTSSPSGAEIYVDEIYRGYTPLTIGSLSTGRHEVRLHLSGYQDYTRTVEIESGSQSSFSVTLT	0.0152
